Source: the supplement of paper PMC9170038

System: MS2 coat protein
Test: apparent KD of MS2 coat protein; designed switch direction (-1 OFF switch, 1 ON switch): 1; higher = weaker reporter binding
Summary of the method: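 The apparent KD reported per design is the median over clusters of curve fits to normalised cluster fluorescence. The RNA switches were transcribed on Illumina chips by stalled E. coli RNA polymerase. SNAP-549-labelled MS2 coat protein was titrated from 0.7 or 1.5 nM, doubling up to 3 µM, in Tris-HCl pH 7.5 buffer containing KCl, MgCl2, BSA, DTT, tRNA and Tween-20, with no input, 200 uM small-molecule ligand, or an oligonucleotide input.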

[1] = input ligand: microRNA oligo, concentration not stated
[2] = Eterna round: R95, input ligand: FMN 200 uM
[3] = Eterna round: R95, input ligand: microRNA oligo, concentration not stated
[4] = Eterna round: R95, input ligand: none

Sequence | apparent KD of MS2 coat protein (input ligand: FMN 200 uM) [nM] | apparent KD of MS2 coat protein [1] [nM] | apparent KD of MS2 coat protein (input ligand: none) [nM] | apparent KD of MS2 coat protein [2] [nM] | apparent KD of MS2 coat protein [3] [nM] | apparent KD of MS2 coat protein [4] [nM]
UAGCUCGUGUGAGGAUAUGCCGCCGUUUCGGCUGCAGAAGGUGCUACGUUACAUGAGGAUCACCCAUGUCUCUGUUGUUUCGUU [salish99_SSNG1_r04_956] (Eterna round: R96, puzzle: Same State NG 1) | 21.5 | 17.5 | 23.1 |  |  | 
UAGUGCAUUAGAGGAUAUUCUUACGAAAACGUAAAGACAUGAGGAUCACCCAUGUUGUCACAUGGGAAGAAGGCUGAUGUGCUA [Omei SS(NG)2 Bv3] (Eterna round: R96, puzzle: Same State NG 2) | 26.3 | 117 | 148 |  |  | 
UAUCAUUACACGAAGGAUAUCGAUAAUUGAACAUGAGGAUCACCCAUGUGAUAUAUUUUACAGUUCGAGAAGGUCGAGGGUGAAG [JR_SS002_Sub705] (Eterna round: R96, puzzle: Same State 2) |  | 28.5 |  |  |  | 
UAUCCAUAGAUAGGAUAUUAGUGAACAUGAGGAUCACCCAUGUUUGGCUUGGUUUUAAGCUAAUCUGAGAAGGAUCUUGAUGAA [SameState NG2 #7] (Eterna round: R96, puzzle: Same State NG 2) | 150 | 98.5 | 164 |  |  | 
UAUGAACAUGAGGAUCACCCAUGUGGAAAGGACACAGGAUAUCACCUCGGACGUGCGAUGUGAGAAGGGUGAUGGU [Anrelari] (puzzle: Same State 1) |  |  |  | 260 | 103 | 125
UAUGCACAUGAGGAUCACCCAUGUGAUAGAAUCACAGGAUAUCACCUCGGACGUGCGAUGUGAGAAGGGUGGUCGU [Same State 1 - Mod of Vinnie Anrelari v.4] (puzzle: Same State 1) |  |  |  | 150 | 63.1 | 124
UAUGCACAUGAGGAUCACCCAUGUGGUAAGACCACAGGAUAUCACCUCGGACGUGCGAUGUGAGAAGGGUGAUGGU [Same State 1 - Mod of Vinnie Anrelari v.3] (puzzle: Same State 1) |  |  |  | 491 | 289 | 379
UAUUUAAUCAUAGGAUAUAGUGUGAAAUUUGGACUAGAAGGAUGUAACAUGAGGAUCACCCAUGUGGUAAGUGGGACACAGUGU [JR_SSNG1_Sub095] (Eterna round: R96, puzzle: Same State NG 1) | 164 | 69.4 | 141 |  |  | 
UCAAGCUUUUUGCUCGUUUUAUGUGUUGAACAUGAGGAUCACCCAUGUAUUGUACGAUCCAGUUAGAUGGUAAUUUG [JR_SHM208A_Sub041] (puzzle: Sensor for hsa-mir-208a) |  |  |  | 62.5 | 140 | 79.8
UCAAUCAUGUAAGGAUAUGCAGCCGAAACGGCUGCAGAAGGUACUAUAAUUACAUGAGGAUCACCCAUGUUAUAAAAUUUAAAU [Mat - Same State NG 1 - JL mod - D68] (Eterna round: R96, puzzle: Same State NG 1) | 35.5 | 46 | 123 |  |  | 
UCAAUCAUGUAAGGAUAUGCAGCCGUUUCGGCUGCAGAAGGUACUAUAAUUACAUGAGGAUCACCCAUGUUAUAAAAUUUAUAU [JL SSNG1 1.26] (Eterna round: R96, puzzle: Same State NG 1) | 33.6 | 101 | 217 |  |  | 
UCAGAGGCGCUAGGAUAUCUCUCCGAGAAGCAGAGAGAAGGAGUGCGGAACCCAAGACCUACAUGAGGAUCACCCAUGUCUCAA [Eternabot solution 27] (Eterna round: R96, puzzle: Same State NG 1) | 22.8 | 22.9 | 38.7 |  |  | 
UCCUUGUGGGUAGGAUAUUUAGGAUAUGCGGAAGACUAAGUCUGUAGGUCACCUAACGCAGAAGGAGAGAAGGACCCUUCAGCA [pwkr ssNG2 2FMN + F9.32] (Eterna round: R96, puzzle: Same State NG 2) | 284 | 87.9 | 309 |  |  | 
UCGGGCGUACUUGCUGACAUGAGGAUCACCCAUGUGCUUGGGAAGGAUAUGGUUCCGUUUCGGUUCCAGAAGGUCCUGGCUGCU [salish99_SSNG3_r04_316] (Eterna round: R96, puzzle: Same State NG 3) | 116 | 47 | 79.8 |  |  | 
UCGGGCUCUGCUCGUCUUGAGUUGCUCCCACAUGAGGAUCACCCAUGUAGUGUGCCGAUCGGCGCGCGGGUGACUUU [Atresoso] (puzzle: Sensor for hsa-mir-208a) |  |  |  | 456 | 151 | 451
UCUCGGGUCGUAGGAUAUGUAGGAUAUGUACAUGAGGAUCACCCAUGUCUACCAGAGACAGAAGGACAGAAGGACGAGCCACUC [pwkr ssNG2 2FMN 1F5s.5] (Eterna round: R96, puzzle: Same State NG 2) | 25.2 | 42.2 | 55.5 |  |  | 
UCUCGGGUCGUAGGAUAUGUAGGAUAUGUACAUGAGGAUCACCCAUGUCUACCAGAGACAGAAGGACAGAAGGACGAGCCGAUC [pwkr ssNG2 2FMN 1F5s.6] (Eterna round: R96, puzzle: Same State NG 2) | 20.9 | 25.8 | 43.7 |  |  | 
UCUCUUAUCGUAGGAUAUGUAGGAUAUGUACAUGAGGAUCACCCAUGUCUACCAGAGACAGAAGGACAGAAGGACGAACCACUC [pwkr ssNG2 2FMN 1F5s.4] (Eterna round: R96, puzzle: Same State NG 2) | 43.4 | 51.7 | 80.7 |  |  | 
UCUUGGUUUUUGCUCGUUUUUUGUGUUGAACAUGAGGAUCACCCAUGUAUUAUACGAUCCGGUUUAAUAAUAAUCCG [JMF 80] (puzzle: Sensor for hsa-mir-208a) |  |  |  | 23.7 | 16.1 | 27.2
UCUUGGUUUUUGCUCGUUUUUUGUGUUGAACAUGAGGAUCACCCAUGUAUUGUACAAUCCGGUUUGAUGAUGGUCCG [JMF 52] (puzzle: Sensor for hsa-mir-208a) |  |  |  | 57.2 | 44.5 | 54.1
UCUUGGUUUUUGCUCGUUUUUUGUGUUGAACAUGAGGAUCACCCAUGUAUUGUACAGUCCAAUUUAAUAAUGGUCCG [JMF 53] (puzzle: Sensor for hsa-mir-208a) |  |  |  | 34.2 | 25.4 | 46.7
UCUUGGUUUUUGCUCGUUUUUUGUGUUGAACAUGAGGAUCACCCAUGUAUUGUACAGUCCGGUUUGAUGAUGGUCCG [JMF 59] (puzzle: Sensor for hsa-mir-208a) |  |  |  | 32.1 | 25.6 | 33.4
UCUUGGUUUUUGCUCGUUUUUUGUGUUGAACAUGAGGAUCACCCAUGUAUUGUACGGUCCAAUUUAAUGAUGGUCCA [JMF 36] (puzzle: Sensor for hsa-mir-208a) |  |  |  | 30.8 | 17.8 | 32.4
UCUUGGUUUUUGCUCGUUUUUUGUGUUGAACAUGAGGAUCACCCAUGUAUUGUACGGUCCAGUUUAAUAAUGGUCCG [JMF 30] (puzzle: Sensor for hsa-mir-208a) |  |  |  | 23.4 | 14 | 25
UCUUGGUUUUUGCUCGUUUUUUGUGUUGAACAUGAGGAUCACCCAUGUAUUGUACGGUCCAGUUUAGUGGUAGUCCG [JMF 70] (puzzle: Sensor for hsa-mir-208a) |  |  |  | 34.6 | 21.5 | 36.4
UCUUGGUUUUUGCUCGUUUUUUGUGUUGAACAUGAGGAUCACCCAUGUAUUGUACGGUCCGAUUUGAUAAUGGUCCA [JMF 41] (puzzle: Sensor for hsa-mir-208a) |  |  |  | 36.3 | 19.2 | 37.4
UCUUGGUUUUUGCUCGUUUUUUGUGUUGAACAUGAGGAUCACCCAUGUAUUGUACGGUCCGAUUUGAUAAUGGUCCG [JMF 21] (puzzle: Sensor for hsa-mir-208a) |  |  |  | 25.8 | 14.8 | 27
UCUUGGUUUUUGCUCGUUUUUUGUGUUGAACAUGAGGAUCACCCAUGUAUUGUACGGUCCGGUUUAGUAGUGGUCCA [JMF 44] (Eterna round: R96, puzzle: Sensor for hsa-mir-208a) | 181 | 81.8 | 173 |  |  | 
